Test results from patent US20250352579A1 (HEBEI SENLANG BIOTECHNOLOGY, published 2025).
Substitutions are numbered along the chain they refer to.

T1: CD7 on cells (K562-CD7 positive cells; KG-1a-GFP-Luc; CCRF-CEM) (UniProt P09564 26-240, limits assumed)
T1 sequence (looked up): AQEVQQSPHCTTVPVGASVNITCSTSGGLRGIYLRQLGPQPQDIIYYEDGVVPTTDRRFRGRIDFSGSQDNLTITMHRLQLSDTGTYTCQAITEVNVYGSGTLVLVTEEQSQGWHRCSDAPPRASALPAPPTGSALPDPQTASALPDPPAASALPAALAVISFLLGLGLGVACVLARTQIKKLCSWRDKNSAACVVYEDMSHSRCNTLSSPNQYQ

T2: CD7-His protein (UniProt P09564 26-180, limits assumed)
T2 construct: extracellular domain; also called recombinant CD7-His protein; CD7 antigen; not shown: His tag
T2 sequence (looked up): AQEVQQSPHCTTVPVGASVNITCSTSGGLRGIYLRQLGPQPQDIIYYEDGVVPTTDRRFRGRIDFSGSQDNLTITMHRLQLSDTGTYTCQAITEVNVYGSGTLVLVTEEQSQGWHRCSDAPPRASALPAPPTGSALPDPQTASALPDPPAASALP

B1: VHH10 single VHH CAR (other)
chain: QVQLQESGGGLVQTGGSLRLSCEASERTFSSNAVGWFRQAPGKEREFVAAITWSVGTTYYADSVKGRFTISRDNAKNTVYLQMNSLKPEDTAVYYCAASGARHYSGSYLDFGSWGQGTQVTVSSTTPAPRPPTPAPTIASQPLSLRPEACRPAAGGAVHTRGLDFACDIYIWAPLAGTCGVLLLSLVITLYCKRGRKKLLYIFKQPFMRPVQTTQEEDGCSCRFPEEEEGGCELRVKFSRSADAPAYKQGQNQLYNELNLGRREEYDVLDKRRGRDPEMGGKPRRKNPQEGLYNELQKDKMAEAYSEIGMKGERRRGKGHDGLYQGLSTATKDTYDALHMQALPPR
B2: VHH07 single VHH CAR (other)
chain: QVQLQESGGGLVQAGGSLRLSCAASGRTFSSYVMKWFRQAPGKGREFVAGISWSGSLTSYSDSVKGRFTISRDNAKNTVYLQMNSLKPEDTAVYYCAAGEAATMSDTDYGMDYWGKGTQVTVSSTTPAPRPPTPAPTIASQPLSLRPEACRPAAGGAVHTRGLDFACDIYIWAPLAGTCGVLLLSLVITLYCKRGRKKLLYIFKQPFMRPVQTTQEEDGCSCRFPEEEEGGCELRVKFSRSADAPAYKQGQNQLYNELNLGRREEYDVLDKRRGRDPEMGGKPRRKNPQEGLYNELQKDKMAEAYSEIGMKGERRRGKGHDGLYQGLSTATKDTYDALHMQALPPR
B3: VHH12 single VHH CAR (other)
chain: QVQLQESGGGLVQPGGSLRLSCAASGSTLDYYAIGWFRQAPGKEREGISCISNSGGMTNYADSVKGRFTISRDNAKNTVYLQMNSLKPEDTAVYYCAAGPAWSYCSGYVPAGLDKFGSWGQGTQVTVSSTTPAPRPPTPAPTIASQPLSLRPEACRPAAGGAVHTRGLDFACDIYIWAPLAGTCGVLLLSLVITLYCKRGRKKLLYIFKQPFMRPVQTTQEEDGCSCRFPEEEEGGCELRVKFSRSADAPAYKQGQNQLYNELNLGRREEYDVLDKRRGRDPEMGGKPRRKNPQEGLYNELQKDKMAEAYSEIGMKGERRRGKGHDGLYQGLSTATKDTYDALHMQALPPR
B4: VHH20 single VHH CAR (other)
chain: QVQLQESGGGLVQPGGSLRLSCAASGTTLDDYAVGWFRQAPGKEREGVACISASELSTYYADSVKGRFTISRDNAKNTMYLQMNSLKPEDTAVYYCAARVGRIVDVTSTQYQYWGQGTQVTVSSTTPAPRPPTPAPTIASQPLSLRPEACRPAAGGAVHTRGLDFACDIYIWAPLAGTCGVLLLSLVITLYCKRGRKKLLYIFKQPFMRPVQTTQEEDGCSCRFPEEEEGGCELRVKFSRSADAPAYKQGQNQLYNELNLGRREEYDVLDKRRGRDPEMGGKPRRKNPQEGLYNELQKDKMAEAYSEIGMKGERRRGKGHDGLYQGLSTATKDTYDALHMQALPPR
B5: VHH06 single VHH CAR (other)
chain: QVQLQESGGGLVQAGGSLRLSCAASGRTFSSYNMGWFRQAPGAEREFVAAISRGGGSTYYADSVKGRFTISRDNAKNTVYLQMNSLRPEDTAVYYCADSGARAYSGSYLDFGSWGQGTQVTVSSTTPAPRPPTPAPTIASQPLSLRPEACRPAAGGAVHTRGLDFACDIYIWAPLAGTCGVLLLSLVITLYCKRGRKKLLYIFKQPFMRPVQTTQEEDGCSCRFPEEEEGGCELRVKFSRSADAPAYKQGQNQLYNELNLGRREEYDVLDKRRGRDPEMGGKPRRKNPQEGLYNELQKDKMAEAYSEIGMKGERRRGKGHDGLYQGLSTATKDTYDALHMQALPPR
B6: VHH08 single VHH CAR (other)
chain: QVQLQESGGGLVQPGGSLRLSCAASGSIFSIHAMAWYRQAPGKQRELVASITVGGRTNYVDSVLGRFTISRDNAKNTVYLQMNSLKPEDTAVYYCNSLLWAGLRDSWGPGTQVTVSSTTPAPRPPTPAPTIASQPLSLRPEACRPAAGGAVHTRGLDFACDIYIWAPLAGTCGVLLLSLVITLYCKRGRKKLLYIFKQPFMRPVQTTQEEDGCSCRFPEEEEGGCELRVKFSRSADAPAYKQGQNQLYNELNLGRREEYDVLDKRRGRDPEMGGKPRRKNPQEGLYNELQKDKMAEAYSEIGMKGERRRGKGHDGLYQGLSTATKDTYDALHMQALPPR
B7: VHH14 single VHH CAR (other)
chain: QVQLQESGGGLVQPGGSLRLSCTASGLTLGYYAIGWFRQAPGKEREFVSTISASGGMTYYADSVKGRFTISRDNAKNTVYLEMNSLKPEDTAVYYCAAEYLGNLRHFRGDHWGKGTQVTVSSTTPAPRPPTPAPTIASQPLSLRPEACRPAAGGAVHTRGLDFACDIYIWAPLAGTCGVLLLSLVITLYCKRGRKKLLYIFKQPFMRPVQTTQEEDGCSCRFPEEEEGGCELRVKFSRSADAPAYKQGQNQLYNELNLGRREEYDVLDKRRGRDPEMGGKPRRKNPQEGLYNELQKDKMAEAYSEIGMKGERRRGKGHDGLYQGLSTATKDTYDALHMQALPPR
B8: VHH19 single VHH CAR (other)
chain: B7 chain with L27R, T28A, L29F, G30S, Y31M, A33V, I34M
B9: dVHH-D (other)
chain (part 1 of 2): QVQLQESGGGLVQTGGSLRLSCEASERTFSSNAVGWFRQAPGKEREFVAAITWSVGTTYYADSVKGRFTISRDNAKNTVYLQMNSLKPEDTAVYYCAASGARHYSGSYLDFGSWGQGTQVTVSS
chain (part 2 of 2): QVQLQESGGGLVQPGGSLRLSCAASGSTLDYYAIGWFRQAPGKEREGISCISNSGGMTNYADSVKGRFTISRDNAKNTVYLQMNSLKPEDTAVYYCAAGPAWSYCSGYVPAGLDKFGSWGQGTQVTVSS
notes: also called VHH-10+VHH-12; double VHH antibody dVHH-D; not shown: Linker
B10: VHH12 (VHH)
VHH: B9 chain (part 2 of 2)
notes: Variable region only; also called anti-CD7 nanobody VHH12
B11: VHH10 (VHH)
VHH: B9 chain (part 1 of 2)
notes: Variable region only; also called anti-CD7 nanobody VHH10
B12: dVHH-E (other)
chain (part 1 of 2): B9 chain (part 1 of 2)
chain (part 2 of 2): B9 chain (part 1 of 2)
notes: also called VHH-10+VHH-10; double VHH antibody dVHH-E; not shown: Linker

biological target: T1, CD7 on cells (K562-CD7 positive cells; …); test: cell-based or functional assay

Binder	killing ratio, CAR-T cells on KG-1a-GFP-Luc, E:T=3:1, 4 h, luciferase
B1	91.4%
B2	61.6%
B3	78.2%
B4	9.38%
B5	62.2%
B6	68.5%
B7	60.4%
B8	61.7%

biological target: T2, CD7-His protein; test: SPR, CD7-His immobilised on CM5 chip by amino coupling, antibody as analyte
Description: In this example, the affinities of the antibodies were measured using the SPR method (surface plasmon resonance method) by immobilizing the CD7-His protein prepared in Example 1 on the CM5 chip through amino coupling method, using the antibodies (dVHH-D, dVHH-E, VHH10, and VHH12) as analytes for the experiments to detect the affinity of each antibody to the CD7 antigen.

Binder	Kd	koff	kon
B9	3.35 nM	0.000754 s⁻¹	225000 M⁻¹ s⁻¹
B10	1.34 nM	9.95e-05 s⁻¹	74200 M⁻¹ s⁻¹
B11	99.9 nM	0.0164 s⁻¹	164000 M⁻¹ s⁻¹
B12	4.51 nM	0.000557 s⁻¹	123000 M⁻¹ s⁻¹
